Measured values as given in publication PMC11929605 (Nature, 2024).

B1: human CaSR (residues 20-894), wild-type construct FLAG-CaSR (receptor, UniProt P41180 20-894, looked up)
chain: YGPDQRAQKKGDIILGGLFPIHFGVAAKDQDLKSRPESVECIRYNFRGFRWLQAMIFAIEEINSSPALLPNLTLGYRIFDTCNTVSKALEATLSFVAQNKIDSLNLDEFCNCSEHIPSTIAVVGATGSGVSTAVANLLGLFYIPQVSYASSSRLLSNKNQFKSFLRTIPNDEHQATAMADIIEYFRWNWVGTIAADDDYGRPGIEKFREEAEERDICIDFSELISQYSDEEEIQHVVEVIQNSTAKVIVVFSSGPDLEPLIKEIVRRNITGKIWLASEAWASSSLIAMPQYFHVVGGTIGFALKAGQIPGFREFLKKVHPRKSVHNGFAKEFWEETFNCHLQEGAKGPLPVDTFLRGHEESGDRFSNSSTAFRPLCTGDENISSVETPYIDYTHLRISYNVYLAVYSIAHALQDIYTCLPGRGLFTNGSCADIKKVEAWQVLKHLRHLNFTNNMGEQVTFDECGDLVGNYSIINWHLSPEDGSIVFKEVGYYNVYAKKGERLFINEEKILWSGFSREVPFSNCSRDCLAGTRKGIIEGEPTCCFECVECPDGEYSDETDASACNKCPDDFWSNENHTSCIAKEIEFLSWTEPFGIALTLFAVLGIFLTAFVLGVFIKFRNTPIVKATNRELSYLLLFSLLCCFSSSLFFIGEPQDWTCRLRQPAFGISFVLCISCILVKTNRVLLVFEAKIPTSFHRKWWGLNLQFLLVFLCTFMQIVICVIWLYTAPPSSYRNQELEDEIIFITCHEGSLMALGFLIGYTCLLAAICFFFAFKSRKLPENFNEAKFITFSMLIFFIVWISFIPAYASTYGKFVSAVEVIAILAASFGLLACIFFNKIYIILFKPSRNTIEEVRCSTAAHAFKVAARATLRRSNV

Experiments:
[1] = target: the molecule itself; test: cryo-EM structure
[2] = target: B1; test: cryo-EM structure

binding result [2]	Binder	stoichiometry N [1]
	B1	2
binds	WT human Gαi3 (natural protein, lipidated N-terminus) MGCTLSAEDKAAVERSKMIDRNLREDGEKAAKEVKLLLLGAGESGKSTIVKQMKIIHEDGYSEDECKQYKVVVYSNTIQSIIAIIRAMGRLKIDFGEAARADDARQLFVLAGSAEEGVMTPELAGVIKRLWRDGGVQACFSRSREYQLNDSASYYLNDLDRISQSNYIPTQQDVLRTRVKTTGIVETHFTFKDLYFKMFDVGGQRSERKKWIHCFEGVTAIIFCVALSDYDLVLAEDEEMNRMHESMKLFDSICNNKWFTETSIILFLNKKDLFEEKIKRSPLTICYPEYTGSNTYEEAAAYIQCQFEDLNRRKDTKEIYTHFTCATDTKNVQFVFDAVTDVIIKNNLKECGLY	
